Experimental data from patent publication US20130336893A1 (Sanofi, published 2013).
*1 amine or outer side, *2 acyl side, *3 side chain or, on linkers, in order; H or OH if unused. Where no end group is shown, it is not given here. Side-chain parts run from the residue outwards. [ ]: non-standard residue; d: D form. The star is where a group is joined. γGlu = O=C(O)[C@H](CCC(=O)[*:2])N[*:1]; Palmitoyl = CCCCCCCCCCCCCCCC(=O)*; Aib = CC(C)(N)C(=O)O; GABA = NCCCC(=O)O

B1: SEQ ID NO: (17) (peptide)
peptide: HSQGTFTSDLSKQMEEERAKDFIEWLKNGGPSSGAPPPS-NH2
B2: SEQ ID NO: (115) (peptide)
peptide: H[dS]QGTFTSDLSKQMEEEAA[Aib]DFIEWLKAGGPSSGAPPPSK([γGlu-Palmitoyl])-NH2
modifications: N-terminus assumed
SMILES: CCCCCCCCCCCCCCCC(=O)N[C@@H](CCC(=O)NCCCC[C@H](NC(=O)[C@H](CO)NC(=O)[C@@H]1CCCN1C(=O)[C@@H]1CCCN1C(=O)[C@@H]1CCCN1C(=O)[C@H](C)NC(=O)CNC(=O)[C@H](CO)NC(=O)[C@H](CO)NC(=O)[C@@H]1CCCN1C(=O)CNC(=O)CNC(=O)[C@H](C)NC(=O)[C@H](CCCCN)NC(=O)[C@H](CC(C)C)NC(=O)[C@H](Cc1c[nH]c2ccccc12)NC(=O)[C@H](CCC(=O)O)NC(=O)[C@@H](NC(=O)[C@H](Cc1ccccc1)NC(=O)[C@H](CC(=O)O)NC(=O)C(C)(C)NC(=O)[C@H](C)NC(=O)[C@H](C)NC(=O)[C@H](CCC(=O)O)NC(=O)[C@H](CCC(=O)O)NC(=O)[C@H](CCC(=O)O)NC(=O)[C@H](CCSC)NC(=O)[C@H](CCC(N)=O)NC(=O)[C@H](CCCCN)NC(=O)[C@H](CO)NC(=O)[C@H](CC(C)C)NC(=O)[C@H](CC(=O)O)NC(=O)[C@H](CO)NC(=O)[C@@H](NC(=O)[C@H](Cc1ccccc1)NC(=O)[C@@H](NC(=O)CNC(=O)[C@H](CCC(N)=O)NC(=O)[C@@H](CO)NC(=O)[C@@H](N)Cc1c[nH]cn1)[C@@H](C)O)[C@@H](C)O)[C@@H](C)CC)C(N)=O)C(=O)O
B3: SEQ ID NO: (110) (peptide)
peptide: H[dS]QGTFTSDLSKQMEEEAAKDFIEWLKAGGPSSGAPPPSK([γGlu-Palmitoyl])-NH2
modifications: N-terminus assumed
SMILES: CCCCCCCCCCCCCCCC(=O)N[C@@H](CCC(=O)NCCCC[C@H](NC(=O)[C@H](CO)NC(=O)[C@@H]1CCCN1C(=O)[C@@H]1CCCN1C(=O)[C@@H]1CCCN1C(=O)[C@H](C)NC(=O)CNC(=O)[C@H](CO)NC(=O)[C@H](CO)NC(=O)[C@@H]1CCCN1C(=O)CNC(=O)CNC(=O)[C@H](C)NC(=O)[C@H](CCCCN)NC(=O)[C@H](CC(C)C)NC(=O)[C@H](Cc1c[nH]c2ccccc12)NC(=O)[C@H](CCC(=O)O)NC(=O)[C@@H](NC(=O)[C@H](Cc1ccccc1)NC(=O)[C@H](CC(=O)O)NC(=O)[C@H](CCCCN)NC(=O)[C@H](C)NC(=O)[C@H](C)NC(=O)[C@H](CCC(=O)O)NC(=O)[C@H](CCC(=O)O)NC(=O)[C@H](CCC(=O)O)NC(=O)[C@H](CCSC)NC(=O)[C@H](CCC(N)=O)NC(=O)[C@H](CCCCN)NC(=O)[C@H](CO)NC(=O)[C@H](CC(C)C)NC(=O)[C@H](CC(=O)O)NC(=O)[C@H](CO)NC(=O)[C@@H](NC(=O)[C@H](Cc1ccccc1)NC(=O)[C@@H](NC(=O)CNC(=O)[C@H](CCC(N)=O)NC(=O)[C@@H](CO)NC(=O)[C@@H](N)Cc1c[nH]cn1)[C@@H](C)O)[C@@H](C)O)[C@@H](C)CC)C(N)=O)C(=O)O
B4: SEQ ID NO: (124) (peptide)
peptide: H[dS]QGTFTSDLSKQMESRRAQDFIEWLKSGGPSSGAPPPK([GABA-Palmitoyl])-NH2
modifications: N-terminus assumed
SMILES: CCCCCCCCCCCCCCCC(=O)NCCCC(=O)NCCCC[C@H](NC(=O)[C@@H]1CCCN1C(=O)[C@@H]1CCCN1C(=O)[C@@H]1CCCN1C(=O)[C@H](C)NC(=O)CNC(=O)[C@H](CO)NC(=O)[C@H](CO)NC(=O)[C@@H]1CCCN1C(=O)CNC(=O)CNC(=O)[C@H](CO)NC(=O)[C@H](CCCCN)NC(=O)[C@H](CC(C)C)NC(=O)[C@H](Cc1c[nH]c2ccccc12)NC(=O)[C@H](CCC(=O)O)NC(=O)[C@@H](NC(=O)[C@H](Cc1ccccc1)NC(=O)[C@H](CC(=O)O)NC(=O)[C@H](CCC(N)=O)NC(=O)[C@H](C)NC(=O)[C@H](CCCNC(=N)N)NC(=O)[C@H](CCCNC(=N)N)NC(=O)[C@H](CO)NC(=O)[C@H](CCC(=O)O)NC(=O)[C@H](CCSC)NC(=O)[C@H](CCC(N)=O)NC(=O)[C@H](CCCCN)NC(=O)[C@H](CO)NC(=O)[C@H](CC(C)C)NC(=O)[C@H](CC(=O)O)NC(=O)[C@H](CO)NC(=O)[C@@H](NC(=O)[C@H](Cc1ccccc1)NC(=O)[C@@H](NC(=O)CNC(=O)[C@H](CCC(N)=O)NC(=O)[C@@H](CO)NC(=O)[C@@H](N)Cc1c[nH]cn1)[C@@H](C)O)[C@@H](C)O)[C@@H](C)CC)C(N)=O
B5: SEQ ID NO: (112) (peptide)
peptide: H[dS]QGTFTSDLSKQMES[Aib]AAQLFIEWLKAGGPSSGAPPPSK([γGlu-Palmitoyl])-NH2
modifications: N-terminus assumed
SMILES: CCCCCCCCCCCCCCCC(=O)N[C@@H](CCC(=O)NCCCC[C@H](NC(=O)[C@H](CO)NC(=O)[C@@H]1CCCN1C(=O)[C@@H]1CCCN1C(=O)[C@@H]1CCCN1C(=O)[C@H](C)NC(=O)CNC(=O)[C@H](CO)NC(=O)[C@H](CO)NC(=O)[C@@H]1CCCN1C(=O)CNC(=O)CNC(=O)[C@H](C)NC(=O)[C@H](CCCCN)NC(=O)[C@H](CC(C)C)NC(=O)[C@H](Cc1c[nH]c2ccccc12)NC(=O)[C@H](CCC(=O)O)NC(=O)[C@@H](NC(=O)[C@H](Cc1ccccc1)NC(=O)[C@H](CC(C)C)NC(=O)[C@H](CCC(N)=O)NC(=O)[C@H](C)NC(=O)[C@H](C)NC(=O)C(C)(C)NC(=O)[C@H](CO)NC(=O)[C@H](CCC(=O)O)NC(=O)[C@H](CCSC)NC(=O)[C@H](CCC(N)=O)NC(=O)[C@H](CCCCN)NC(=O)[C@H](CO)NC(=O)[C@H](CC(C)C)NC(=O)[C@H](CC(=O)O)NC(=O)[C@H](CO)NC(=O)[C@@H](NC(=O)[C@H](Cc1ccccc1)NC(=O)[C@@H](NC(=O)CNC(=O)[C@H](CCC(N)=O)NC(=O)[C@@H](CO)NC(=O)[C@@H](N)Cc1c[nH]cn1)[C@@H](C)O)[C@@H](C)O)[C@@H](C)CC)C(N)=O)C(=O)O
B6: SEQ ID NO: (114) (peptide)
peptide: H[dS]QGTFTSDLSKQMESEAAQLFIEWLKAGGPSSGAPPPSK([γGlu-Palmitoyl])-NH2
modifications: N-terminus assumed
SMILES: CCCCCCCCCCCCCCCC(=O)N[C@@H](CCC(=O)NCCCC[C@H](NC(=O)[C@H](CO)NC(=O)[C@@H]1CCCN1C(=O)[C@@H]1CCCN1C(=O)[C@@H]1CCCN1C(=O)[C@H](C)NC(=O)CNC(=O)[C@H](CO)NC(=O)[C@H](CO)NC(=O)[C@@H]1CCCN1C(=O)CNC(=O)CNC(=O)[C@H](C)NC(=O)[C@H](CCCCN)NC(=O)[C@H](CC(C)C)NC(=O)[C@H](Cc1c[nH]c2ccccc12)NC(=O)[C@H](CCC(=O)O)NC(=O)[C@@H](NC(=O)[C@H](Cc1ccccc1)NC(=O)[C@H](CC(C)C)NC(=O)[C@H](CCC(N)=O)NC(=O)[C@H](C)NC(=O)[C@H](C)NC(=O)[C@H](CCC(=O)O)NC(=O)[C@H](CO)NC(=O)[C@H](CCC(=O)O)NC(=O)[C@H](CCSC)NC(=O)[C@H](CCC(N)=O)NC(=O)[C@H](CCCCN)NC(=O)[C@H](CO)NC(=O)[C@H](CC(C)C)NC(=O)[C@H](CC(=O)O)NC(=O)[C@H](CO)NC(=O)[C@@H](NC(=O)[C@H](Cc1ccccc1)NC(=O)[C@@H](NC(=O)CNC(=O)[C@H](CCC(N)=O)NC(=O)[C@@H](CO)NC(=O)[C@@H](N)Cc1c[nH]cn1)[C@@H](C)O)[C@@H](C)O)[C@@H](C)CC)C(N)=O)C(=O)O
B7: SEQ ID NO: (113) (peptide)
peptide: H[dS]QGTFTSDLSKQMEEEAAKLFIEWLKAGGPSSGAPPPSK([γGlu-Palmitoyl])-NH2
modifications: N-terminus assumed
SMILES: CCCCCCCCCCCCCCCC(=O)N[C@@H](CCC(=O)NCCCC[C@H](NC(=O)[C@H](CO)NC(=O)[C@@H]1CCCN1C(=O)[C@@H]1CCCN1C(=O)[C@@H]1CCCN1C(=O)[C@H](C)NC(=O)CNC(=O)[C@H](CO)NC(=O)[C@H](CO)NC(=O)[C@@H]1CCCN1C(=O)CNC(=O)CNC(=O)[C@H](C)NC(=O)[C@H](CCCCN)NC(=O)[C@H](CC(C)C)NC(=O)[C@H](Cc1c[nH]c2ccccc12)NC(=O)[C@H](CCC(=O)O)NC(=O)[C@@H](NC(=O)[C@H](Cc1ccccc1)NC(=O)[C@H](CC(C)C)NC(=O)[C@H](CCCCN)NC(=O)[C@H](C)NC(=O)[C@H](C)NC(=O)[C@H](CCC(=O)O)NC(=O)[C@H](CCC(=O)O)NC(=O)[C@H](CCC(=O)O)NC(=O)[C@H](CCSC)NC(=O)[C@H](CCC(N)=O)NC(=O)[C@H](CCCCN)NC(=O)[C@H](CO)NC(=O)[C@H](CC(C)C)NC(=O)[C@H](CC(=O)O)NC(=O)[C@H](CO)NC(=O)[C@@H](NC(=O)[C@H](Cc1ccccc1)NC(=O)[C@@H](NC(=O)CNC(=O)[C@H](CCC(N)=O)NC(=O)[C@@H](CO)NC(=O)[C@@H](N)Cc1c[nH]cn1)[C@@H](C)O)[C@@H](C)O)[C@@H](C)CC)C(N)=O)C(=O)O
B8: SEQ ID NO: (111) (peptide)
peptide: H[dS]QGTFTSDLSKQMES[Aib]AAQDFIEWLKAGGPSSGAPPPSK([γGlu-Palmitoyl])-NH2
modifications: N-terminus assumed
SMILES: CCCCCCCCCCCCCCCC(=O)N[C@@H](CCC(=O)NCCCC[C@H](NC(=O)[C@H](CO)NC(=O)[C@@H]1CCCN1C(=O)[C@@H]1CCCN1C(=O)[C@@H]1CCCN1C(=O)[C@H](C)NC(=O)CNC(=O)[C@H](CO)NC(=O)[C@H](CO)NC(=O)[C@@H]1CCCN1C(=O)CNC(=O)CNC(=O)[C@H](C)NC(=O)[C@H](CCCCN)NC(=O)[C@H](CC(C)C)NC(=O)[C@H](Cc1c[nH]c2ccccc12)NC(=O)[C@H](CCC(=O)O)NC(=O)[C@@H](NC(=O)[C@H](Cc1ccccc1)NC(=O)[C@H](CC(=O)O)NC(=O)[C@H](CCC(N)=O)NC(=O)[C@H](C)NC(=O)[C@H](C)NC(=O)C(C)(C)NC(=O)[C@H](CO)NC(=O)[C@H](CCC(=O)O)NC(=O)[C@H](CCSC)NC(=O)[C@H](CCC(N)=O)NC(=O)[C@H](CCCCN)NC(=O)[C@H](CO)NC(=O)[C@H](CC(C)C)NC(=O)[C@H](CC(=O)O)NC(=O)[C@H](CO)NC(=O)[C@@H](NC(=O)[C@H](Cc1ccccc1)NC(=O)[C@@H](NC(=O)CNC(=O)[C@H](CCC(N)=O)NC(=O)[C@@H](CO)NC(=O)[C@@H](N)Cc1c[nH]cn1)[C@@H](C)O)[C@@H](C)O)[C@@H](C)CC)C(N)=O)C(=O)O

Each binder was assayed against human glucagon receptor (human, UniProt P47871 26-477) (assay: cell-based or functional assay).
Sequence of human glucagon receptor (P47871 26-477): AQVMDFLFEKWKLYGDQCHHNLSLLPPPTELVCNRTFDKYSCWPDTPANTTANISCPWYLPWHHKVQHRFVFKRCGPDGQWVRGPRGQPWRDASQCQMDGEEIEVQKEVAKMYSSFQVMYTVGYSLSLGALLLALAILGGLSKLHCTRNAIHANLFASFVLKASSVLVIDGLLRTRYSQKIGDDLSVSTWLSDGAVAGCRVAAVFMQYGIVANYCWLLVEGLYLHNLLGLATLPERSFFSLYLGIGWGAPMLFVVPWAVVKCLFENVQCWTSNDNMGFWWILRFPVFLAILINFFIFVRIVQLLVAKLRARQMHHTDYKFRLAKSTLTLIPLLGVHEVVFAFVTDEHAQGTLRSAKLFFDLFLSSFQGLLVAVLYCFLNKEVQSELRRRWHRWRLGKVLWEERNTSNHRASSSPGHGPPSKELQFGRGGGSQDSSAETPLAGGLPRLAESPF

Binder | EC50 hGlucagonR (cAMP formation)
B1 | 3.36 nM
B2 | 0.175 nM
B3 | 0.323 nM
B4 | 0.0213 nM
B5 | 0.876 nM
B6 | 0.295 nM
B7 | 0.311 nM
B8 | 0.206 nM

Each binder was assayed against human GLP-1 receptor (human, UniProt P43220 24-463) (assay: cell-based or functional assay).

Binder | EC50 hGLP-1R (cAMP formation)
B1 | 0.0241 nM
B2 | 0.0007 nM
B3 | 0.0029 nM
B4 | 0.0139 nM
B5 | 0.0097 nM
B6 | 0.0031 nM
B7 | 0.002 nM
B8 | 0.0041 nM
